Assay results from paper PMC8479507 (Cell Reports, 2021).

Target: SARS-CoV-2 receptor-binding domain (RBD) (SARS-CoV-2 (Wuhan-Hu-1), UniProt P0DTC2)
Test: cell-based or functional assay

B1: monoclonal antibody 910-30, IgG (antibody, V domains shown)
VH: EVQLVESGGGLVQPGGSLRLSCAASGFTVSSNYMSWVRQAPGKGLEWVSLIYSGGSTYYADSVKGRFTISRHNSKNTLYLQMNSLRAEDTAVYYCARIYGDYAWGQGTLVTVSS
VL: not shown
IC50 of neutralisation of authentic SARS-CoV-2; blocks RBD binding to ACE2: 0.142 µg/mL
